{"source": "patent US20210269512A1", "about": "(NOVOBIND LIVESTOCK THERAPEUTICS, published 2021)", "binders": {"B1": {"name": "NBX0340 (VHH)", "VHH": "QVQLQESGGGLVQAGESLRLSCLAAGRTFSTSTLGWFRQAPGLEREFVAAIRYTSDYTARTTDYADSVKGRFAISRDYIKQAVYLQMNNLKPEDTAVYYCAAAKYGMGYSDPSGYTYWGQGTQVTVSS"}, "B2": {"name": "NBX0330 (VHH)", "VHH": "QVQLQESGGGLVQAGGSLRLSCAASSRTFSNYAMAWFRQTPGKEREFLATINGDTTFTIYADSVKGRFTISRDNAKNTLYLQMNSLKAEDTAVYYCAARQWNPTMRERDYGYWGQGTEVTVSS"}, "B3": {"name": "NBX0338 (VHH)", "VHH": "QVQLQESGGGLVQAGDSLRLSCATSGRSFSSYTMGWFRQTPGKEREFVAAISWSGTYYTDSVKGRFTISRDNAKNTVYLQMNSLKPEDTAVYYCAVGSRRLYYSSDINYWGQGTQVTVSS"}, "B4": {"name": "NBX0339 (VHH)", "VHH": "B3 VHH with R27L, S28T, F29V, S31R, T76M, V96A, Y102H"}, "B5": {"name": "NBX0329 (VHH)", "VHH": "B3 VHH with D16G, R27L, S28T, F29V, S31R, E44D, R70V, T76M, V96A, S105N"}}, "note": "Positions count from the first letter of the chain named."}
{"biological_target": "T1, Cpa (phospholipase) (Clostridium perfringens, UniProt P0C216 29-398)", "T1 sequence": "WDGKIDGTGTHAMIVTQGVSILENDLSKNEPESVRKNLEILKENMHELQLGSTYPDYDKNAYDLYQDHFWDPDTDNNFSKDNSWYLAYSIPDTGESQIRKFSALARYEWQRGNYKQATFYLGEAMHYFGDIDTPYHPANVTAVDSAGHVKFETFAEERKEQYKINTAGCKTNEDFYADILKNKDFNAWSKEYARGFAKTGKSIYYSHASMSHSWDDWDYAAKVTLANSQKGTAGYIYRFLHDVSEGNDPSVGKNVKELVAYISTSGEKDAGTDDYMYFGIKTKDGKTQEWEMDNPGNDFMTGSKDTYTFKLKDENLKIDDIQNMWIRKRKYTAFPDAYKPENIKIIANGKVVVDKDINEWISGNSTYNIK", "test": "phage ELISA, coated antigen"}
{"binder": "B1", "binding result": "binds"}
{"binder": "B2", "binding result": "binds"}
{"binder": "B3", "binding result": "binds"}
{"binder": "B4", "binding result": "binds"}
{"binder": "B5", "binding result": "binds"}
